Data: PMC9482650, “Quantitative fragmentomics allow affinity mapping of interactomes” (Nature Communications, 2022)

T1: ARHGEF11, O15085
T1 sequence (O15085 42-136, limits assumed, looked up): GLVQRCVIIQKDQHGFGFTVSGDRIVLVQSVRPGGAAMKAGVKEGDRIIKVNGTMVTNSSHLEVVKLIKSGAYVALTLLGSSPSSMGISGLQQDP

T2: DLG3_3, Q92796
T2 sequence (Q92796 374-475, limits assumed, looked up): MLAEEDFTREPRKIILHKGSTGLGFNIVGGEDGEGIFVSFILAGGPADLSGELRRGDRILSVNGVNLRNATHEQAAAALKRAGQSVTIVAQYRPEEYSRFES

T3: DVL3, Q92997
T3 sequence (Q92997 244-331, limits assumed, looked up): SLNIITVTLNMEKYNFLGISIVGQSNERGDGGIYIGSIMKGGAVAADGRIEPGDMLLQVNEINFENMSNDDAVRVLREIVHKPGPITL

T4: GRIP1_4, Q9Y3R0
T4 sequence (Q9Y3R0 467-571, limits assumed, looked up): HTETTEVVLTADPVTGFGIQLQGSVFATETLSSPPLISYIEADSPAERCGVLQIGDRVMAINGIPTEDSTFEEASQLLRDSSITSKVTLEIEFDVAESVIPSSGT

T5: GRIP1_5, Q9Y3R0
T5 sequence (Q9Y3R0 568-668, limits assumed, looked up): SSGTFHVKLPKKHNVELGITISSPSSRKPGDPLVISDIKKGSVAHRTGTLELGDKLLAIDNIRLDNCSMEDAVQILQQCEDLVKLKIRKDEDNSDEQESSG

T6: LIN7B, Q9HAP6
T6 sequence (Q9HAP6 88-185, limits assumed, looked up): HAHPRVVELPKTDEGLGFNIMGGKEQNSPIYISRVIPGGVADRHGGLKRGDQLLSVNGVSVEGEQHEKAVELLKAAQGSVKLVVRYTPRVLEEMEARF

T7: LNX2_2, Q8N448
T7 sequence (Q8N448 334-432, limits assumed, looked up): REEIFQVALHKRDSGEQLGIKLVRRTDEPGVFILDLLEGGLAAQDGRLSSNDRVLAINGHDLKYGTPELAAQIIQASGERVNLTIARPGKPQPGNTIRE

T8: LNX2_3, Q8N448
T8 sequence (Q8N448 463-564, limits assumed, looked up): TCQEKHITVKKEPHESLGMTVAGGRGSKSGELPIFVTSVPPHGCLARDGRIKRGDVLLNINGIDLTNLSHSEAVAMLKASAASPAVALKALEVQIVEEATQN

T9: MPP2, Q14168
T9 sequence (Q14168 180-250, limits assumed, looked up): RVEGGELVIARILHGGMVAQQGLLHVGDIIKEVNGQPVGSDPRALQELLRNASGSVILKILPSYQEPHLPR

T10: NHERF3_1, Q5T2W1
T10 sequence (Q5T2W1 4-100, limits assumed, looked up): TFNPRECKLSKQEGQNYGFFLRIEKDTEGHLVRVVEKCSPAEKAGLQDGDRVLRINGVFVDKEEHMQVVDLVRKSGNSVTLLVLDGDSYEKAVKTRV

T11: RADIL, Q96JH8
T11 sequence (Q96JH8 971-1071, limits assumed, looked up): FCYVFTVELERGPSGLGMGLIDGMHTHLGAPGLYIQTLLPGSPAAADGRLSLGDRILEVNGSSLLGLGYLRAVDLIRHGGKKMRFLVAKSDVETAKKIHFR

T12: TIAM2, Q8IVF5
T12 sequence (Q8IVF5 885-986, limits assumed, looked up): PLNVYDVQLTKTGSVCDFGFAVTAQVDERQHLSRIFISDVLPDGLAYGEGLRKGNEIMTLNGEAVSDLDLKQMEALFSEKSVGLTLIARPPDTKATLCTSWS

B1: FCHSD2, O94868 (peptide)
chain: KIEDVEITLV
B2: FAM71C, Q8NEG0 (peptide)
chain: STYCDYTIEI
B3: FAM167B, Q9BTA0 (peptide)
chain: NISARRFTLC

The binders below were run against T1, ARHGEF11, O15085 (assay: holdup assay). Conditions: plain residues with an end cap or a label only (N-terminal biotin on a linker: ado-ado).
Parameters: key: below the threshold = too weak to quantify, mostly under pKd 3.1 to 4
B1 gave a pKd of 4.42.
In the case of B2, the pKd is reported as 4.
In the case of B3, the pKd is reported as 3.86.

The binders below were run against DLG1_2, Q12959 (assay: holdup assay). Conditions: plain residues with an end cap or a label only (N-terminal biotin on a linker: ado-ado).
Chain of DLG1_2, Q12959 (Q12959 314-412): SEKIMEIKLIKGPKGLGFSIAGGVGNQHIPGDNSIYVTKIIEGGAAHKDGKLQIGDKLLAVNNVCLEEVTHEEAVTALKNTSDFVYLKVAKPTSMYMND
Parameters: key: below the threshold = too weak to quantify, mostly under pKd 3.1 to 4
B1 showed a pKd of 4.3.
B2 was tested, and the pKd was “below the threshold”.
B3 showed a pKd of 3.92.

These binders were tested against T2, DLG3_3, Q92796 (assay: holdup assay). Conditions: plain residues with an end cap or a label only (N-terminal biotin on a linker: ado-ado).
Parameters: key: below the threshold = too weak to quantify, mostly under pKd 3.1 to 4
For B1, the pKd was “below the threshold”.
With B2 the pKd was “below the threshold”.
B3 was tested, and the pKd was 4.25.

Each binder was assayed against T3, DVL3, Q92997 (assay: holdup assay). Conditions: plain residues with an end cap or a label only (N-terminal biotin on a linker: ado-ado).
Parameters: key: below the threshold = too weak to quantify, mostly under pKd 3.1 to 4
With B1 the pKd was “below the threshold”.
B2 was tested, and the pKd was 4.01.
With B3 the pKd was “below the threshold”.

What follows are binders tested against FRMPD4, Q14CM0 (assay: holdup assay). Conditions: plain residues with an end cap or a label only (N-terminal biotin on a linker: ado-ado).
Chain of FRMPD4, Q14CM0 (Q14CM0 67-160): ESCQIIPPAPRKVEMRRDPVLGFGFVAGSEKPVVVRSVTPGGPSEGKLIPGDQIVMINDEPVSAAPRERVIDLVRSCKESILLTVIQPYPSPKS
Parameters: key: below the threshold = too weak to quantify, mostly under pKd 3.1 to 4
B1 was tested, and the pKd was “below the threshold”.
In the case of B2, the pKd is reported as “below the threshold”.
For B3, the pKd was “below the threshold”.

Each binder was assayed against GIPC2, Q8TF65 (assay: holdup assay). Conditions: plain residues with an end cap or a label only (N-terminal biotin on a linker: ado-ado).
Chain of GIPC2, Q8TF65 (Q8TF65 112-203): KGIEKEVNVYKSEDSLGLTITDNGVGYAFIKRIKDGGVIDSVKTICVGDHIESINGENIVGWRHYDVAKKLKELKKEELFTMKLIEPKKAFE
Parameters: key: below the threshold = too weak to quantify, mostly under pKd 3.1 to 4
For B1, the pKd was “below the threshold”.
Work on B2 yielded a pKd of 3.49.
In the case of B3, the pKd is reported as “below the threshold”.

The binders below were run against T4, GRIP1_4, Q9Y3R0 (assay: holdup assay). Conditions: plain residues with an end cap or a label only (N-terminal biotin on a linker: ado-ado).
Parameters: key: below the threshold = too weak to quantify, mostly under pKd 3.1 to 4
In the case of B1, the pKd is reported as “below the threshold”.
In the case of B2, the pKd is reported as “below the threshold”.
B3 was tested, and the pKd was “below the threshold”.

These binders were tested against T5, GRIP1_5, Q9Y3R0 (assay: holdup assay). Conditions: plain residues with an end cap or a label only (N-terminal biotin on a linker: ado-ado).
Parameters: key: below the threshold = too weak to quantify, mostly under pKd 3.1 to 4
In the case of B1, the pKd is reported as “below the threshold”.
In the case of B2, the pKd is reported as “below the threshold”.
B3 was tested, and the pKd was “below the threshold”.

Each binder was assayed against GRIP2_5, Q9C0E4 (assay: holdup assay). Conditions: plain residues with an end cap or a label only (N-terminal biotin on a linker: ado-ado).
Chain of GRIP2_5, Q9C0E4 (Q9C0E4 544-642): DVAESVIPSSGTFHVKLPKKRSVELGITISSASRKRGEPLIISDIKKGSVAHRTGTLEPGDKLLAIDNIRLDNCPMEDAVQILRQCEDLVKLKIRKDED
Parameters: key: below the threshold = too weak to quantify, mostly under pKd 3.1 to 4
With B1 the pKd was “below the threshold”.
For B2, the pKd was “below the threshold”.
In the case of B3, the pKd is reported as “below the threshold”.

Each binder was assayed against IL16_3, Q14005 (assay: holdup assay). Conditions: plain residues with an end cap or a label only (N-terminal biotin on a linker: ado-ado).
Chain of IL16_3, Q14005 (Q14005 1107-1207): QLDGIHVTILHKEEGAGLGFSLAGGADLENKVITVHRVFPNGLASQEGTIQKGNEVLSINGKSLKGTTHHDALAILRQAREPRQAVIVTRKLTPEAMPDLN
Parameters: key: below the threshold = too weak to quantify, mostly under pKd 3.1 to 4
For B1, the pKd was “below the threshold”.
In the case of B2, the pKd is reported as “below the threshold”.
With B3 the pKd was “below the threshold”.

What follows are binders tested against IL16_4, Q14005 (assay: holdup assay). Conditions: plain residues with an end cap or a label only (N-terminal biotin on a linker: ado-ado).
Chain of IL16_4, Q14005 (Q14005 1229-1329): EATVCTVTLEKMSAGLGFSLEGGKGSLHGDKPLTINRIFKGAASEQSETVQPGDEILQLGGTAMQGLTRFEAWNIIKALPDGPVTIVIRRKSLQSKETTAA
Parameters: key: below the threshold = too weak to quantify, mostly under pKd 3.1 to 4
B1 was tested, and the pKd was “below the threshold”.
In the case of B2, the pKd is reported as “below the threshold”.
B3 was tested, and the pKd was “below the threshold”.

The binders below were run against Inadl_2, Q8NI35 (assay: holdup assay). Conditions: plain residues with an end cap or a label only (N-terminal biotin on a linker: ado-ado).
Chain of Inadl_2, Q8NI35 (Q8NI35 238-335): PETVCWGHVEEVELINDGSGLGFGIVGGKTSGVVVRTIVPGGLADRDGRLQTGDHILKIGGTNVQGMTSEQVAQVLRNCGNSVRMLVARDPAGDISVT
Parameters: key: below the threshold = too weak to quantify, mostly under pKd 3.1 to 4
B1 gave a pKd of 4.3.
B2 showed a pKd of 3.51.
In the case of B3, the pKd is reported as “below the threshold”.

What follows are binders tested against LAP2, Q96RT1 (assay: holdup assay). Conditions: plain residues with an end cap or a label only (N-terminal biotin on a linker: ado-ado).
Chain of LAP2, Q96RT1 (Q96RT1 other isoform, or with tags, fused parts or gaps): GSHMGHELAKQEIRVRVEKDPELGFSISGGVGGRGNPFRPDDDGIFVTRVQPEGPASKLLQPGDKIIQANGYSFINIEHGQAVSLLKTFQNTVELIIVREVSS
Parameters: key: below the threshold = too weak to quantify, mostly under pKd 3.1 to 4
Binder B1 has a pKd of 3.84.
B2 was tested, and the pKd was “below the threshold”.
In the case of B3, the pKd is reported as “below the threshold”.

The binders below were run against T6, LIN7B, Q9HAP6 (assay: holdup assay). Conditions: plain residues with an end cap or a label only (N-terminal biotin on a linker: ado-ado).
Parameters: key: below the threshold = too weak to quantify, mostly under pKd 3.1 to 4
B1 was tested, and the pKd was “below the threshold”.
For B2, the pKd was “below the threshold”.
B3 was tested, and the pKd was 4.08.

Each binder was assayed against T7, LNX2_2, Q8N448 (assay: holdup assay). Conditions: plain residues with an end cap or a label only (N-terminal biotin on a linker: ado-ado).
Parameters: key: below the threshold = too weak to quantify, mostly under pKd 3.1 to 4
For B1, the pKd was 5.6.
In the case of B2, the pKd is reported as 4.96.
B3 showed a pKd of 5.39.

What follows are binders tested against T8, LNX2_3, Q8N448 (assay: holdup assay). Conditions: plain residues with an end cap or a label only (N-terminal biotin on a linker: ado-ado).
Parameters: key: below the threshold = too weak to quantify, mostly under pKd 3.1 to 4
B1 was tested, and the pKd was “below the threshold”.
B2 was tested, and the pKd was “below the threshold”.
With B3 the pKd was “below the threshold”.

The binders below were run against MAGI2_2, Q86UL8 (assay: holdup assay). Conditions: plain residues with an end cap or a label only (N-terminal biotin on a linker: ado-ado).
Chain of MAGI2_2, Q86UL8 (Q86UL8 410-522): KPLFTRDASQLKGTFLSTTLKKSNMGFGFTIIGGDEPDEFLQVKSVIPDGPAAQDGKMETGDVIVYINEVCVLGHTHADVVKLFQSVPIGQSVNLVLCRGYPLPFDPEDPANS
Parameters: key: below the threshold = too weak to quantify, mostly under pKd 3.1 to 4
For B1, the pKd was 3.77.
With B2 the pKd was “below the threshold”.
In the case of B3, the pKd is reported as 4.76.

Each binder was assayed against MAST2, Q6P0Q8 (assay: holdup assay). Conditions: plain residues with an end cap or a label only (N-terminal biotin on a linker: ado-ado).
Chain of MAST2, Q6P0Q8 (Q6P0Q8 1099-1202): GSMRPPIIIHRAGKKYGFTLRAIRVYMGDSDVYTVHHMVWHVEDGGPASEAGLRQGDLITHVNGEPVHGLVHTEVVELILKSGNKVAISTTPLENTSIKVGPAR
Parameters: key: below the threshold = too weak to quantify, mostly under pKd 3.1 to 4
With B1 the pKd was 5.63.
B2 showed a pKd of 5.12.
For B3, the pKd was 4.89.

These binders were tested against T9, MPP2, Q14168 (assay: holdup assay). Conditions: plain residues with an end cap or a label only (N-terminal biotin on a linker: ado-ado).
Parameters: key: below the threshold = too weak to quantify, mostly under pKd 3.1 to 4
In the case of B1, the pKd is reported as “below the threshold”.
In the case of B2, the pKd is reported as “below the threshold”.
Work on B3 yielded a pKd of 3.82.

The binders below were run against T10, NHERF3_1, Q5T2W1 (assay: holdup assay). Conditions: plain residues with an end cap or a label only (N-terminal biotin on a linker: ado-ado).
Parameters: key: below the threshold = too weak to quantify, mostly under pKd 3.1 to 4
B1 gave a pKd of 4.13.
B2 was tested, and the pKd was “below the threshold”.
B3 showed a pKd of 4.11.

These binders were tested against NOS1, P29475 (assay: holdup assay). Conditions: plain residues with an end cap or a label only (N-terminal biotin on a linker: ado-ado).
Chain of NOS1, P29475 (P29475 9-101): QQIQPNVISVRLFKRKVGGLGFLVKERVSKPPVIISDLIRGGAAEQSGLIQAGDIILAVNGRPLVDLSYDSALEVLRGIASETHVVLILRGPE
Parameters: key: below the threshold = too weak to quantify, mostly under pKd 3.1 to 4
B1 showed a pKd of 3.8.
B2 showed a pKd of 3.62.
Work on B3 yielded a pKd of 3.81.

What follows are binders tested against PARD3_3, Q8TEW0 (assay: holdup assay). Conditions: plain residues with an end cap or a label only (N-terminal biotin on a linker: ado-ado).
Chain of PARD3_3, Q8TEW0 (Q8TEW0 582-685): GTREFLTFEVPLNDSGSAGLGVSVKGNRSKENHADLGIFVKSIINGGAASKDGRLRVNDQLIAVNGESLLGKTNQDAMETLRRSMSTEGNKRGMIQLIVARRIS
Parameters: key: below the threshold = too weak to quantify, mostly under pKd 3.1 to 4
B1 gave a pKd of 3.99.
B2 gave a pKd of 5.15.
B3 was tested, and the pKd was “below the threshold”.

Each binder was assayed against T11, RADIL, Q96JH8 (assay: holdup assay). Conditions: plain residues with an end cap or a label only (N-terminal biotin on a linker: ado-ado).
Parameters: key: below the threshold = too weak to quantify, mostly under pKd 3.1 to 4
B1 was tested, and the pKd was 5.03.
B2 gave a pKd of 4.58.
B3 was tested, and the pKd was 4.62.

These binders were tested against SNX27, Q96L92 (assay: holdup assay). Conditions: plain residues with an end cap or a label only (N-terminal biotin on a linker: ado-ado).
Parameters: key: below the threshold = too weak to quantify, mostly under pKd 3.1 to 4
B1 showed a pKd of 5.01.
With B2 the pKd was 3.56.
With B3 the pKd was “below the threshold”.

Each binder was assayed against T12, TIAM2, Q8IVF5 (assay: holdup assay). Conditions: plain residues with an end cap or a label only (N-terminal biotin on a linker: ado-ado).
Parameters: key: below the threshold = too weak to quantify, mostly under pKd 3.1 to 4
For B1, the pKd was “below the threshold”.
B2 was tested, and the pKd was 4.15.
In the case of B3, the pKd is reported as “below the threshold”.

These binders were tested against TJP2_1, Q9UDY2 (assay: holdup assay). Conditions: plain residues with an end cap or a label only (N-terminal biotin on a linker: ado-ado).
Chain of TJP2_1, Q9UDY2 (Q9UDY2 24-128): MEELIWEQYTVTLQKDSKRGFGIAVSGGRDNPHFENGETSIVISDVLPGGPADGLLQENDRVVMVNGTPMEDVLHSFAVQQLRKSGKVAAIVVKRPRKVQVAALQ
Parameters: key: below the threshold = too weak to quantify, mostly under pKd 3.1 to 4
In the case of B1, the pKd is reported as “below the threshold”.
With B2 the pKd was “below the threshold”.
Work on B3 yielded a pKd of 4.76.
